Experimental findings from patent publication US20080214462 are described below.

The target of the series is factor X (FX) (UniProt P00742).
UniProt P00742, sequence (P00742 whole entry, looked up): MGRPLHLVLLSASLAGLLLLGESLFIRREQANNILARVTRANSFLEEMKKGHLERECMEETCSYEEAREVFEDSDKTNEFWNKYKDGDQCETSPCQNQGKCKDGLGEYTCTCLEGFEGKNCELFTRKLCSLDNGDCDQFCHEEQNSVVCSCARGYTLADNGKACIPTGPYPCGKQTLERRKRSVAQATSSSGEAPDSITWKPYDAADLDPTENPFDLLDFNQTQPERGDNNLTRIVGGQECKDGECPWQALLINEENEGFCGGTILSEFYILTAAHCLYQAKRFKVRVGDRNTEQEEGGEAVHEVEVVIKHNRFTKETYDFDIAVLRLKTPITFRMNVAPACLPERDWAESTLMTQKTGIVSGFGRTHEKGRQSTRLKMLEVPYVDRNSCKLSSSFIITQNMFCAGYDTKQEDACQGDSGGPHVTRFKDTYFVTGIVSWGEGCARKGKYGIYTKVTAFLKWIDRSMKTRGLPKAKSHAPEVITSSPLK

Take activated plasma derived FIX (pdFIXa): the aPTT in FIX-depleted plasma: pdFIXa equivalent activity given for 0.5 µg/mL of FIXa protein was found to be 1.1 µg/mL.
